The record followed here is paper PMC4162605.

In the data set the test system is P49302. The experiment in a line: […] (DSC); […] (40 mM tris, pH 8.0, 0.5 M ([…]; 1 mg/mL; […]) dissociation. As to conditions: other: differential scanning calorimetry (DSC). A general note: In DSC, transitions show as peaks or steps in heat flow.

Turning to “unmodified murine polyomavirus VP1 capsomere, as used for DSC”, the dHm of capsomere dissociation (first DSC endotherm) turned out to be 87.6 kcal/mol.
